± gives the uncertainty stated by the source.
Assay: self-splicing fitness, log relative to wild type (ln ratio); higher = more splicing; Tetrahymena group I intron in knt gene, E. coli kanamycin selection, DiMSum; sequences stand for … in CUCUCU…GGAGGGAAAAGUUAUCAGGCAUGCACCUGGUAGCUAGUCUUUAAACCAAUAGAUUGCAUCGGUUUAAAAGGCAAGACCGUCAAAUUGCGGGAAAGGGGUCAACAGCCGUUCAGUACCAAGUCUCAGGGGAAACUUUGAGAUGGCCUUGCAAAGGGUAUGGUAAUAAGCUGACGGACAUGGUCCUAACCACGCAGCCAAGUCCUAAGUCAACAGAUCUUCUGUUGAUAUGGAUGCAGUUCACAGACUAAAUGUCGGUCGGGGAAGAUGUAUUCUUCUCAUAAGAUAUAGUCGGACCUCUCCUUAAUGGGAGCUAGCGGAUGAAGUGAUGCAACACUGGAGCCGCUGGGAACUAAUUUGUAUGCGAAAGUAUAUUGAUUAGUUUUGGAGUACUCGUGGUCG
Method in brief: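 Fitness was computed with DiMSum as the error-weighted combination of replicate fold changes, kanamycin versus none, each normalised to wild type. The library randomised all eight intron nucleotides of the P1ex region, with the intron placed in the knt kanamycin-resistance gene on pET-22b(+) in E. coli BL21(DE3). Six replicate transformations were grown overnight at 37°C or 30°C on LB agar with or without 25 μg/mL kanamycin, plus 100 μg/mL carbenicillin, 50 μM IPTG and 0.2% rhamnose. Pooled colonies were amplicon-sequenced on an Illumina HiSeq 2500.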

Sequence | self-splicing fitness (ln) (30 °C) | self-splicing fitness (ln) (37 °C)
CACGAGCAAUAUUACGAUAA | -3.63 ± 0.32 | -2.32 ± 0.28
ACCAAGCAAUAUUACGGAUC | -3.49 ± 0.14 | -1.28 ± 0.1
AGUAAGCAAUAUUACGCAGC | -3.52 ± 0.32 | -1.8 ± 0.3
GCCGAGCAAUAUUACGCACC | -1.96 ± 0.23 | -0.483 ± 0.21
CUGAAGCAAUAUUACGCUUA | -3.82 ± 0.3 | -2.13 ± 0.23
CCGUAGCAAUAUUACGCGGA | -2.85 ± 0.26 | -3.13 ± 0.26
CUCAAGCAAUAUUACGCCAG | -3.03 ± 0.28 | -0.675 ± 0.29
CGCCAGCAAUAUUACGUCGA | -2.94 ± 0.12 | -1.24 ± 0.081
GAUUAGCAAUAUUACGAGGG | -2.81 ± 0.29 | -2.88 ± 0.29
AAGGAGCAAUAUUACGGUCC | -2.13 ± 0.18 | -2.03 ± 0.27
CAUUAGCAAUAUUACGAUUC | -2.1 ± 0.18 | -0.901 ± 0.17
AACUAGCAAUAUUACGCUGU | -3.41 ± 0.16 | -3.84 ± 0.32
AUACAGCAAUAUUACGUCAA | -2.32 ± 0.15 | -1.05 ± 0.1
GGCAAGCAAUAUUACGCCUA | -1.04 ± 0.14 | -1.19 ± 0.13
CGCGAGCAAUAUUACGCGGA | -2.15 ± 0.22 | -2.71 ± 0.31
UGCGAGCAAUAUUACGAUGA | -2.13 ± 0.16 | -1.4 ± 0.13
UAACAGCAAUAUUACGCCUG | -0.264 ± 0.085 | 0.182 ± 0.11
GAGGAGCAAUAUUACGUUAC | -3.66 ± 0.25 | -3.09 ± 0.4
GGCCAGCAAUAUUACGAUCA | -2.93 ± 0.25 | -1.53 ± 0.16
ACGGAGCAAUAUUACGUCAG | -3.38 ± 0.19 | -1.69 ± 0.18
UGUAAGCAAUAUUACGAAUA | -0.825 ± 0.21 | -0.536 ± 0.23
GAGUAGCAAUAUUACGUCCC | -0.805 ± 0.21 | -0.255 ± 0.23
CCGAAGCAAUAUUACGUGGC | -3.27 ± 0.19 | -2.61 ± 0.34
GCGCAGCAAUAUUACGAGAU | -1.85 ± 0.089 | -0.7 ± 0.11
CUUGAGCAAUAUUACGUGCA | -3.2 ± 0.29 | -1.94 ± 0.25

Sequence | self-splicing fitness (ln) (30 °C) | self-splicing fitness (ln) (37 °C)
UCCGAGCAAUAUUACGACUC | -3.61 ± 0.21 | -2.87 ± 0.34
UGUCAGCAAUAUUACGCUAU | -1.83 ± 0.11 | -1.3 ± 0.12
GUCCAGCAAUAUUACGUAAC | -0.291 ± 0.073 | -0.649 ± 0.095
CCAAAGCAAUAUUACGACAU | -3.658 ± 0.02 | -2.82 ± 0.037
UGACAGCAAUAUUACGCGUC | -4.67 ± 0.38 | -3.62 ± 0.27
CUAGAGCAAUAUUACGGGCA | – | -2.34 ± 0.36
UUCUAGCAAUAUUACGUGCC | -3.06 ± 0.36 | –
ACCAAGCAAUAUUACGUUGC | -2.65 ± 0.086 | -0.992 ± 0.075
GUAUAGCAAUAUUACGGCGU | -0.696 ± 0.13 | 0.267 ± 0.19
AUCGAGCAAUAUUACGAUGC | -2.77 ± 0.47 | -1.77 ± 0.42
UCCUAGCAAUAUUACGCCCA | -1.65 ± 0.34 | -0.0863 ± 0.31
AUGCAGCAAUAUUACGAUUG | -2.67 ± 0.2 | -2.83 ± 0.32
CUCUAGCAAUAUUACGGUCA | -3.27 ± 0.29 | -3.17 ± 0.37
GUGCAGCAAUAUUACGCCAC | – | -1.95 ± 0.47
GGAAAGCAAUAUUACGCGGG | -2.64 ± 0.18 | -1.5 ± 0.18
UAUCAGCAAUAUUACGAAAA | -0.436 ± 0.13 | -0.123 ± 0.17
AAGAAGCAAUAUUACGCCUU | -3.53 ± 0.4 | -2.17 ± 0.33
UUAGAGCAAUAUUACGUUAU | -3.14 ± 0.16 | -2.14 ± 0.19
CUUCAGCAAUAUUACGCUCC | -2.61 ± 0.26 | –
UCGGAGCAAUAUUACGAGGC | -2.74 ± 0.42 | –
CACUAGCAAUAUUACGCACG | -0.378 ± 0.099 | -0.823 ± 0.089
ACAUAGCAAUAUUACGGAAU | -3.72 ± 0.19 | -2.44 ± 0.19
GUUGAGCAAUAUUACGUUAC | -2.2 ± 0.13 | -2.21 ± 0.24
GCGGAGCAAUAUUACGGCGC | -2.22 ± 0.36 | –
UGACAGCAAUAUUACGAGGU | -3.28 ± 0.15 | -2.65 ± 0.21

Sequence | self-splicing fitness (ln) (30 °C) | self-splicing fitness (ln) (37 °C)
GUGGAGCAAUAUUACGUUUU | -3.35 ± 0.28 | -2.48 ± 0.48
AUAAAGCAAUAUUACGCUAG | -0.761 ± 0.1 | -0.165 ± 0.12
GAGCAGCAAUAUUACGGCCC | -1.51 ± 0.15 | -1.09 ± 0.19
GUUGAGCAAUAUUACGACUG | -2.97 ± 0.32 | 0.138 ± 0.22
UACGAGCAAUAUUACGCGUU | -1.67 ± 0.2 | -3.64 ± 0.42
AGUUAGCAAUAUUACGGUCU | -0.221 ± 0.081 | -0.0741 ± 0.087
CUAAAGCAAUAUUACGACUA | -2.79 ± 0.21 | -1.78 ± 0.17
GGUCAGCAAUAUUACGGGGA | -1.25 ± 0.17 | -1.87 ± 0.2
AGCUAGCAAUAUUACGCGCC | -2.25 ± 0.23 | -2.04 ± 0.29
UGUUAGCAAUAUUACGUCCU | -1.31 ± 0.15 | -0.516 ± 0.23
UGAGAGCAAUAUUACGCAUU | -3.34 ± 0.38 | –
CUAGAGCAAUAUUACGCCGU | -2.86 ± 0.32 | -1.99 ± 0.43
GAGGAGCAAUAUUACGAAUU | -3.43 ± 0.3 | –
CUAAAGCAAUAUUACGCGGA | -3.85 ± 0.3 | -3.62 ± 0.24
UAAGAGCAAUAUUACGUGCC | -3.13 ± 0.15 | -3.48 ± 0.34
UCCUAGCAAUAUUACGCACU | -1.17 ± 0.12 | -0.784 ± 0.12
GUCUAGCAAUAUUACGUCUG | -2.49 ± 0.14 | -1.51 ± 0.13
UCCUAGCAAUAUUACGGUAG | -3.32 ± 0.32 | -2.28 ± 0.29
UUCCAGCAAUAUUACGAAAC | – | -2.29 ± 0.35
GCUUAGCAAUAUUACGCUGG | – | -2.13 ± 0.3
GAGCAGCAAUAUUACGGGCU | -3.92 ± 0.28 | -2.55 ± 0.34
GGCCAGCAAUAUUACGUAGC | -2.24 ± 0.16 | 0.278 ± 0.16
UCCAAGCAAUAUUACGAUUA | -0.942 ± 0.11 | -0.817 ± 0.11
ACGGAGCAAUAUUACGCGCG | -2 ± 0.15 | -0.429 ± 0.14
AAAGAGCAAUAUUACGAGAU | -3.95 ± 0.17 | -3.28 ± 0.22

Sequence | self-splicing fitness (ln) (30 °C) | self-splicing fitness (ln) (37 °C)
GGGGAGCAAUAUUACGCACA | -2.37 ± 0.43 | -0.994 ± 0.34
CAUAAGCAAUAUUACGUCAC | -3.86 ± 0.29 | –
CCCGAGCAAUAUUACGACCC | – | -0.219 ± 0.47
AAUGAGCAAUAUUACGGCCG | -2.12 ± 0.15 | -1.36 ± 0.2
AACCAGCAAUAUUACGGACG | 0.131 ± 0.059 | -0.143 ± 0.07
UUGCAGCAAUAUUACGACAA | -0.619 ± 0.087 | 0.212 ± 0.1
UACGAGCAAUAUUACGACUU | -2.11 ± 0.13 | -0.959 ± 0.15
AGUUAGCAAUAUUACGGCUA | -0.379 ± 0.11 | -0.127 ± 0.11
AUCGAGCAAUAUUACGAAAU | -2.63 ± 0.37 | -1.87 ± 0.46
UUUCAGCAAUAUUACGUAUU | -2.08 ± 0.13 | -1.39 ± 0.13
ACAAAGCAAUAUUACGGGUG | -1.21 ± 0.046 | -0.593 ± 0.064
AAGUAGCAAUAUUACGGCUC | -0.15 ± 0.12 | 0.32 ± 0.15
ACGUAGCAAUAUUACGCUAG | -2.85 ± 0.12 | -0.713 ± 0.13
GUAAAGCAAUAUUACGACUC | 0.441 ± 0.1 | 1.06 ± 0.15
CCCAAGCAAUAUUACGUUGC | -3.18 ± 0.25 | -2.16 ± 0.21
AAUGAGCAAUAUUACGGGGC | -2.82 ± 0.2 | -1.93 ± 0.24
CCCUAGCAAUAUUACGCGGA | -1.29 ± 0.12 | -0.827 ± 0.1
UUUUAGCAAUAUUACGUCCC | – | -1.78 ± 0.48
UUGCAGCAAUAUUACGAUAA | -0.501 ± 0.11 | 0.0102 ± 0.12
UAUAAGCAAUAUUACGAAUU | -2.74 ± 0.19 | -0.731 ± 0.2
GCCUAGCAAUAUUACGUUCC | -1.1 ± 0.17 | 0.341 ± 0.19
UGUAAGCAAUAUUACGUCCA | 0.388 ± 0.1 | -0.132 ± 0.12
GGUCAGCAAUAUUACGUAAC | -1.32 ± 0.14 | -0.628 ± 0.16
CCUGAGCAAUAUUACGCGCA | -2.95 ± 0.34 | -1.11 ± 0.37

Source: the supplement of paper PMC7877785
